Laboratory results: patent US20230279088A1 (NATIONAL RESEARCH COUNCIL OF CANADA, published 2023)

Molecular target: T1, Aβ1-42 oligomers (Aβ1-42 preparation consisting predominantly of higher oligomers) (UniProt P05067 672-713)
T1 construct: domain: Aβ1-42; Oligomeric aggregate; also called Aβ oligomers; Aβ-oligomer
Assay: ELISA: ABP immobilized on the plate, exposed to Aβ, bound Aβ detected with 6E10 or 4G8
Protocol: ELISA: Aβ-binding assays were carried out as described by Chakravarthy et al (2013). Maxisorp 96-well ELISA plates (Nunc) were coated with (100-500 ng/well) either free ABP (synthetic) or various FC5-ABP constructs overnight at 4° C. in PBS. The wells were blocked with 1% BSA in TBS-T for 30 min and then incubated with Af31-42 preparations consisting predominantly of either monomer and dimers (Mo) or higher oligomers (010 in TBS-T at RT for 45 min with gentle agitation. Following three TBS-T washes, bound Aβ was detected by incubating HRP-conjugated Aβ-specific antibody (6E10 or 4G8) for 90 min at RT in TBS-T. The bound antibody was detected with SureBlueTM TMB reagent kit (KPL) by colorimetric measurement at 450 nm according to manufacturer's instructions.
A Coomassie blue stained gel after separation of FC5 fusion molecules by SDS-PAGE (NR-non-reducing and R-reducing conditions) indicating successful production of recombinant fusion molecule is shown in FIG. 2A. Free or fused ABP was immobilized on ELISA plate by coating samples in phosphate buffered saline (PBS) overnight at 4° C. and exposed to Aβ preparations as described by Chakravarthy et al., 2013. Bound Aβ was detected with Aβ-specific antibody 6E10 or 4G8 (Chakravarthy et al., 2013). […] Bound Aβ was detected with specific antibody as above. […]

T1 sequence (P05067 672-713 limits assumed): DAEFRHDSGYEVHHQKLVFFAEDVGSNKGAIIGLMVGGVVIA

- binding result: binds
B1: free ABP (synthetic amyloid-binding peptide) (peptide)
peptide: KTFKTRKASAQASLASKDKTPKSKSKKRNSTQLKSRVKNI
notes: also called P4-5 peptide (ABP)
